# Reference: patent US20060019871A1, “Endothelial cell apoptosis induced by fibrinogen gamma chain C-terminal fragment” (The Regents of the University of California, priority 2004, published 2006)
# Read-outs that look alike come from different tables or passages of the source.
# B1: γC-399tr: Deletion mutant of γC with 12 amino acids truncated from the C-terminal; amino acid sequence 1-249 of SEQ ID NO:3 (protein, listed as Homo sapiens)
# chain: KDCQDIANKGAKQSGLYFIKPLKANQQFLVYCEIDGSGNGWTVFQKRLDGSVDFKKNWIQYKEGFGHLSPTGTTEFWLGNEKIHLISTQSAIPYALRVELEDWNGRTSTADYAMFKVGPEADKYRLTYAYFAGGDAGDAFDGFDFGDDPSDKFFTSHNGMQFSTWDNDNDKFEGNCAEQDGSGWWMNKCHAGHLNGVYYQGGTYSKASTPNGYDNGIIWATWKTRWYSMKKTTMKIIPFNRLTIGEGQQ
# modifications: C-terminal region of fibrinogen gamma chain, isoform gamma-A, residues 177-437
# B2: γC: Fibrinogen γ-chain C-terminal domain, 30 Kd, about 250 amino acid residues, sequence as set forth in SEQ ID NO:3 (protein, listed as Homo sapiens)
# chain: KDCQDIANKGAKQSGLYFIKPLKANQQFLVYCEIDGSGNGWTVFQKRLDGSVDFKKNWIQYKEGFGHLSPTGTTEFWLGNEKIHLISTQSAIPYALRVELEDWNGRTSTADYAMFKVGPEADKYRLTYAYFAGGDAGDAFDGFDFGDDPSDKFFTSHNGMQFSTWDNDNDKFEGNCAEQDGSGWWMNKCHAGHLNGVYYQGGTYSKASTPNGYDNGIIWATWKTRWYSMKKTTMKIIPFNRLTIGEGQQHHLGGAKQAGDV
# modifications: C-terminal region of fibrinogen gamma chain, isoform gamma-A, residues 177-437
# Experiments:
# [1] = system: γC-399tr-induced apoptosis; assay: Blocking of γC-399tr-induced apoptosis by MAPK inhibitors (FIG. 6); assay type: cell-based
# Method: 10 μM of inhibitor is the saturating concentration.
# It was further observed that endothelial cell apoptosis induced by γC-399tr can be blocked by p38 MAP kinase inhibitor SB-203580 but not inhibitors of some other MAP kinases.
# [2] = system: DLD-1 human colon adenocarcinoma cells; assay: Tumor growth of DLD-1 xenograft in SCID mice; assay type: in vivo; details: injections of recombinant γC-399tr in PBS
# Method: Human breast adenocarcinoma BT20 cells are subcutaneously injected into 7-9-week-old male non-obese diabetes/severe combined immunodeficiency (NOD/SCID) mice. The animals are divided into 4 groups, each having 5 animals. Each animal receives 2×10^6 cells in the injection. The treatment groups, Groups 1-3, are injected daily intraperitoneally with recombinant γC. The control group, Group 4, receives injections of equal volumes of PBS each day. The dimensions of the tumors are measured and the tumor volumes are calculated. After two weeks of treatment, the animals are sacrificed and the tumors are excised, sectioned, and evaluated histologically. To examine the tumor vasculatures, the tumor sections are stained by CD31 anti-mouse monoclonal antibody (PharMingen, San Diego, Calif.). Tumor size and the extent of tumor vasculature are compared among all treatment and control groups.
# Following the general procedure described in Example 2, DLD-1 human colon adenocarcinoma cells were injected into SCID mice. Subsequently, the treatment groups of mice received injections of recombinant γC-399tr in PBS, whereas the control group received PBS injections.
# [3] = system: Bovine Arterial Endothelial (BAE) cell; assay: Growth arrest of BAE cells in culture (FIG. 1); assay type: cell-based
# Method: FIG. 1. Fibrinogen γC-induced growth arrest of Bovine Arterial Endothelial (BAE) cell. […] Fragment D required much higher concentrations (100 μg/ml) to induce detectable apoptotic effects.
# BAE cells [4] = assay: MTS (CellTiter96) proliferation assay, BAE cells (FIG. 2); assay type: cell-based, bovine
# Method: (§1) FIG. 2. […] The numbers of proliferating cells were determined using a tetrazolium compound MTS (CellTiter96® assay).
# CHO cells = assay: MTS (CellTiter96) proliferation assay, CHO cells (FIG. 2); assay type: cell-based, Chinese hamster
# Method: as §1
# β3-CHO cells = assay: MTS (CellTiter96) proliferation assay, β3-CHO cells (FIG. 2); assay type: cell-based, Chinese hamster
# Method: as §1
# BAE cells [5] = assay: Annexin V / propidium iodide binding, flow cytometry, apoptosis of BAE cells (FIG. 3); assay type: cell-based, bovine
# Method: FIGS. 3A and 3B. […] BAE cells were treated with 10 μg/ml recombinant soluble γC or native fibrinogen for the indicated time. The binding of annexin V or propidium iodide (PI) to the treated BAE cells was measured in flow cytometry (FIG. 3A).
# MAP kinases Erk1 and 2 = assay: Activation of MAP kinases Erk1 and 2, western blotting in β3-CHO cells (FIG. 4); assay type: cell-based, Chinese hamster; details: soluble γC in the medium, 30 min
# Method: FIG. 4. Fibrinogen γC-induced activation of MAP kinases Erk1 and 2. CHO cells expressing recombinant αvβ3 (β3-CHO cells) were incubated with soluble γC at indicated concentrations for 30 min and the levels of MAP kinases (Erk1 and 2) were determined by western blotting with anti-phosphorylated Erk 1 and 2.
# It remains a possibility that γC acts as an antagonist and blocks signaling from other integrin ligands by competing for binding to integrins.
# [6] = system: calf pulmonary artery endothelial (CPAE) cells; assay: CPAE proliferation / apoptosis, MTS and Phosphate assay (FIG. 5); assay type: cell-based
# Method: FIG. 5. Inhibition of CPAE Proliferation induced by fibrinogen γC and γC-399tr. CPAE proliferation was measured by using a MTS and Phosphate assay. 10% serum-induced proliferation was inhibited by γC in a concentration-dependent fasion 48 hours passed after 1×10^5/ml. The γC-399tr is approximately 3 times more efficient in inducing apoptosis of CPAE cells.
# A deletion mutant of γC that has 12 amino acids truncated from the C-terminal of γC, termed γC-399tr (having the amino acid sequence of 1-249 of SEQ ID NO:3), was recombinantly produced and purified.
# caspase-3 and caspase-7 = assay: Activation of caspases by γC in CPAE cells; assay type: cell-based, calf; details: protein expression and enzymatic activity
molecule,measurement,setting,value
C[S+]([O-])c1ccc(-c2nc(-c3ccncc3)c(-c3ccc(F)cc3)[nH]2)cc1 (stereo not drawn) [SB-203580],saturating concentration of inhibitor for blocking γC-399tr-induced apoptosis,[1],10 µM
same,blocking of γC-399tr-induced apoptosis,[1]; endothelial cell,blocks
B1,tumor size versus PBS control group,[2],reduced tumor size
B2,proliferation of BAE cells,"[3]; 12.5 μg/ml each in culture media, 1×10^4 cells per well, 48 hours",blocked proliferation
same,concentration blocking proliferation of BAE cells,[3]; FIG. 1 as cited,less than 1 μg/ml
same,level of γC effectively blocking proliferation of BAE cells,BAE cells [4],below 1 μg/ml
same,proliferation of BAE cells in the MTS assay,BAE cells [4],blocked proliferation
same,effect on proliferation of CHO cells,CHO cells,little or no effect
same,effect on proliferation of CHO cells,CHO cells; listed as γC domain,not
same,effect on proliferation of β3-CHO cells,β3-CHO cells,little or no effect
same,effect on proliferation of β3-CHO cells,β3-CHO cells; listed as γC domain,not
same,induction of apoptosis of BAE cells,"BAE cells [5]; 10 μg/ml, annexin V / PI binding",induced apoptosis
same,time at which apoptosis of BAE cells was detectable,"BAE cells [5]; 10 μg/ml, annexin V / PI flow cytometry",2 to 4 h
same,time in which apoptosis of BAE cells was induced,BAE cells [5]; annexin V binding assays,2 to 4 h
same,concentration inducing MAP kinase activation,MAP kinases Erk1 and 2,less than 1 μg/ml
same,apoptosis in CPAE cells,[6],induced apoptosis
same,10% serum-induced CPAE proliferation,"[6]; 48 hours, 1×10^5/ml",inhibited
same,activation of caspase-3 and caspase-7,caspase-3 and caspase-7,activation of caspase-3 and caspase-7
